The text below walks through data of patent publication US20220242939A1 (BIOARCTIC, published 2022).

Non-standard residues stand in square brackets, D forms with d. No end group written: not given here. Ahx = NCCCCCC(=O)O

This experiment addresses T1, A199 N-terminal neo-epitope peptide AGQPLQ-Acp-C (SEQ ID NO:51) conjugated to BSA (human, not fully specified (residue 8); printed as AGQPLQ-Acp-C; also: C-terminal Cys conjugated to BSA carrier).
T1 construct: BSA carrier; also called A199-BSA peptide
T1 peptide: AGQPLQ[Ahx]C
In words: direct ELISA, second protocol; proteins coated at 0.1 uM, BSA peptides at 1 ug/ml; antibody in 3-fold dilutions from 3000 ng/ml; blank reduced OD 450 nm. The method, then: The screening was performed according to standard ELISA protocols. Briefly, 1 μg/ml solutions of BSA-conjugated neo-epitope peptides, recombinant C-terminal ApoE fragment, negative control peptide and full-length ApoE were prepared by dilution in PBS. 50 μl/well were added to an ELISA half-area 96 well microtiter plate, the plate was sealed with adhesive sealer and incubated over night at 4° C. After discarding the solution, the plates were blocked with 150 μl/well of protein-free blocking solution (Pierce) for 1 h at room temperature with shake (900 rpm). The plates were washed four times with washing buffer containing 0.28 mM NaH₂PO₄, 2.5 mM Na₂HPO₄, 150 mM NaCl, 0.1% TWEEN®-20 and 0.0075% Kathon CG. […] An anti-ApoE C-terminal antibody was used as a reference antibody (ApoE E-8 mouse monoclonal, cat. no. sc-393302; Santa Cruz Biotechnology). 50 μl/well were added into the ELISA plates and incubated for 2 h at room temperature with shake (900 rpm). The plates were washed four times as described previously. […] After another wash (as described previously), 50 μl/well of K-Blue® aqueous substrate (Neogen) were added, and the reaction was stopped after 5-15 min with 50 μl/well of 0.5 M […]. The optical density at 450 nm was read using an ELISA reader (Tecan). The optical density was plotted against the antibody concentration to generate concentration-response curves (FIG. 16).
These were added in the same molarity (0.1 μM) to provide an equal number of molecules available for binding by the antibodies (BSA-coupled peptides were coated at 1 μg/ml as before).

B1: 28F2, recombinant IgG2c antibody (antibody, V domains shown)
VH: QIQLVQSGPDLKKPGETVKISCKASGYTFTNYAMHWMKQAPGKALKWMGWINTYTGEPTFADDFKGRFAFSLETSASTAYLQINSLKNEDMATYFCAREGYYDRSHYFDYWGQGTTLTVSS
VL: DVLMTQTPLSLPVSLGDQASISCRSSLSLVHGDGNTYLEWYLQKPGQSPKLLIYKVSNRFSGVPDRFSGSGSGTDFTLKISRVEAEDLGVYYCLQGSHIPFTFGSGTKLEIK
Regarding B1, the concentration for a half-maximal effect (EC50 (read off the curve)) is around 0.1 µg/mL.
